Experimental data reported in patent US20180251563A1 (SUBDOMAIN, published 2018).
Positions count from the first letter of the chain named.

T1: CD123 (target of Example 19) (Homo sapiens (Human), UniProt P26951 19-305, limits assumed)
T1 sequence: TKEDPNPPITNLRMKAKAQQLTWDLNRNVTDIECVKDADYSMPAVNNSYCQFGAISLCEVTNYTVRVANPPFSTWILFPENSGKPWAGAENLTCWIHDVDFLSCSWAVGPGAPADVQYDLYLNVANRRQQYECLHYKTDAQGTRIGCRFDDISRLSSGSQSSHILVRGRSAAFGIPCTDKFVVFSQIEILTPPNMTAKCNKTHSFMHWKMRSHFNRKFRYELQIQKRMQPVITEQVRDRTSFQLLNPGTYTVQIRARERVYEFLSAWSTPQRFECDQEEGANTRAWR

B1: SEQ ID NO 61 (designed binder)
chain: MGSWVEFEYRLDAISDRLWALGGSEAELAFFENEIASFESDLQFYKGKGNPEVEALMFEAEAIDDELHAYRHN
B2: SEQ ID NO 119 (designed binder)
chain: MGSWTEFSIRLEAIYDRLVALGGSEAELAAFEKEIAAFESELQAYKGKGNPEVEVLRTYAANIRHELQAYRHN
B3: SEQ ID NO 121 (designed binder)
chain: B2 chain with T5Y, S8V, Y15E, V19W, T58W, N62D
B4: SEQ ID NO 126 (designed binder)
chain: B2 chain with T5H, S8G, I9V, E12D, V19M, V55F, T58Q, Y59A, H65S
B5: SEQ ID NO 127 (designed binder)
chain: B2 chain with T5Y, I9M, E12D, V19M, V55Q, T58G, H65N
B6: SEQ ID NO 113 (designed binder)
chain: MGSWFEFWDRLDAIEDRLYALGGSEAELAAFEKEIAAFESELQAYKGKGNPEVEELRDEAAWIRGTLQAYRHN
B7: SEQ ID NO 118 (designed binder)
chain: B6 chain with D9G, D12E, D16S, Y19K, D58E, E59H, G65A, T66Y
B8: SEQ ID NO 60 (designed binder)
chain: MGSWIEFEDRLDAITDRLWALGGSEAELAEFEHQIAFFEEDLQWYKGKGNPEVEALHMEAEAIMEELGAYRHN
B9: SEQ ID NO 64 (designed binder)
chain: MGSWWEFEDRLWAIDRRLMALGGSEAELAVFEQMIAHFEQILQVYKGKGNPEVEALHFEAHAIGMELAAYRHN
B10: SEQ ID NO 120 (designed binder)
chain: MGSWYEFENRLEAIEERLWALGGSEAELAAFEKEIAAFESELQAYKGKGNPEVEMLREEAAFIRDWLQAYRHN
B11: SEQ ID NO 108 (designed binder)
chain: B10 chain with E12G, E15G, E16D, M55W, E58D, F62Y, D65A, W66V
B12: SEQ ID NO 122 (designed binder)
chain: B6 chain with F5I, W8E, D12E, Y19F, E55W, D58Q, W62E, G65L, T66M
B13: SEQ ID NO 106 (designed binder)
chain: MGSWHEFDQRLWAIEERLWALGGSEAELAAFEKEIAAFESELQAYKGKGNPEVETLRLYAALIRHDLQAYRHN
B14: SEQ ID NO 107 (designed binder)
chain: B13 chain with H5I, D8E, Q9S, E16D, W19L, T55F, Y59E, L62D, H65E
B15: SEQ ID NO 109 (designed binder)
chain: MGSWNEFYDRLSAIYFRLQALGGSEAELAAFEKEIAAFESELQAYKGKGNPEVEHLRWYAADIRMILQAYRHN
B16: SEQ ID NO 116 (designed binder)
chain: B15 chain with N5V, S12H, Q19L, H55D, M65L, I66V
B17: SEQ ID NO 117 (designed binder)
chain: B15 chain with N5Y, D9N, F16A, H55D, M65Y, I66M
B18: SEQ ID NO 65 (designed binder)
chain: MGSWEEFHERLDAIDERLEALGGSEAELAFFEDDIASFEDWLQWYKGKGNPEVEALSREADAINFELEAYRHN
B19: SEQ ID NO 63 (designed binder)
chain: MGSWYEFEERLDAIEDRLIALGGSEAELAIFEDIIAFFEQDLQYYKGKGNPEVEALEMEAEAISIELDAYRHN
B20: SEQ ID NO 62 (designed binder)
chain: MGSWYEFEDRLAAIEARLWALGGSEAELADFEEEIAYFEHGLQWYKGKGNPEVEALESEAMAIIDELHAYRHN
B21: SEQ ID NO 28 (designed binder)
chain: MGSWVYFKEHLAWIKTELEALGGSEAELAHFEHSIADFEMSLQFYKGKGNPEVEALRKEAAAIRDELQAYRHN
B22: SEQ ID NO 32 (designed binder)
chain: B21 chain with V5I, W13Y, T16K, H33S, S34A, D37V, M40S, S41T, F44Y
B23: SEQ ID NO 26 (designed binder)
chain: MGSWNYFKDHLAWIKNSLEALGGSEAELAHFETAIASFERQLQEYKGKGNPEVEALRKEAAAIRDELQAYRHN
B24: SEQ ID NO 27 (designed binder)
chain: B23 chain with N5L, D9E, W13H, N16A, S17W, T33L, S37D, R40Y, Q41H
B25: SEQ ID NO 30 (designed binder)
chain: B23 chain with N5H, W13E, N16G, S17L, T33M, S37D, R40H, Q41N, E44Y
B26: SEQ ID NO 31 (designed binder)
chain: B23 chain with N5H, D9G, W13E, S17H, T33R, S37A, Q41S, E44W
B27: SEQ ID NO 29 (designed binder)
chain: B23 chain with N5F, D9Q, N16S, S17Y, T33R, S37A, R40Q, Q41H, E44M
B28: SEQ ID NO 33 (designed binder)
chain: B21 chain with V5T, W13E, T16Y, E17M, H33V, S34A, M40K, S41M, F44Y
B29: SEQ ID NO 34 (designed binder)
chain: B23 chain with N5W, Y6L, W13E, N16T, S17A, T33M, S37A, R40K, E44Y
B30: SEQ ID NO 14 (designed binder)
chain: MGSWYEFRHRLWAIDQRLYALGGSEAELAAFEKEIAAFESELQAYKGKGNPEVEGLREAAAFIRAKLQAYRHN
B31: SEQ ID NO 12 (designed binder)
chain: B30 chain with Y5V, R8G, G55K, E58Q, A59R, A65F, K66R
B32: SEQ ID NO 53 (designed binder)
chain: MGSWYEFRHRLWAIDQRLYALGGSEAELAAFEKEIAAFESELQAYKGKGNPEVEGLREAAAFIRAKLQAYRHNGGGGSHHHHHH
notes: E. coli, IMAC and HPLC purified
B33: SEQ ID NO 55 (designed binder)
chain: B32 chain with Y5F, R8N, D15N, Q16E, G55R, E58S, A59M, A65Y
notes: as for B32
B34: SEQ ID NO 57 (designed binder)
chain: B32 chain with R8H, H9Y, W12H, G55E, E58I, A59K, A65D, K66R
notes: as for B32
B35: SEQ ID NO 52 (designed binder)
chain: B32 chain with Y5V, R8A, H9N, Y19F, G55H, E58D, A59Q, A65H
notes: as for B32
B36: SEQ ID NO 54 (designed binder)
chain: B32 chain with R8S, H9M, G55A, E58A, A59K, F62Y, A65W
notes: as for B32
B37: SEQ ID NO 51 (designed binder)
chain: B32 chain with Y5V, R8G, G55K, E58Q, A59R, A65F, K66R
notes: as for B32
B38: SEQ ID NO 56 (designed binder)
chain: B32 chain with R8G, G55Y, A59T, F62H, A65T, K66R
notes: as for B32
B39: SEQ ID NO 58 (designed binder)
chain: MGSWAEFKQRLAAIKTRLEALGGSEAELAAFLGEIWAFEMELAAYKGKGNPEVEALGREAAAIRMELQAYRHNGGGGSHHHHHH
notes: E. coli, IMAC and HPLC purified; also called His-fusion of bb10

Each binder was assayed against T1, CD123 (target of Example 19) (assay: library selection; assay not described).
B1: binds.
B2: binds.
B3: binds.
B4: binds.
B5: binds.
B6: binds.
B7: binds.
B8: binds.
B9: binds.
B10: binds.
B11: binds.
B12: binds.
B13: binds.
B14: binds.
B15: binds.
B16: binds.
B17: binds.
B18: binds.
B19: binds.
B20: binds.

These binders were tested against T2, DR5-Fc (UniProt O14763 56-182, limits assumed) (assay: phage ELISA, target-Fc against non-specific control).
T2 construct: purified recombinant target-Fc protein; not shown: Fc
T2 sequence (O14763 56-182 limits assumed): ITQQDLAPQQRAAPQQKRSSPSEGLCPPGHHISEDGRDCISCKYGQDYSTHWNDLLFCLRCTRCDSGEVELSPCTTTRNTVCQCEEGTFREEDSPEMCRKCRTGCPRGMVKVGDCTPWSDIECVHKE
Method: (§1) Selections were also performed using F1, F2, F3, C1 & C2 trinucleotide phosphoramidite libraries. In most cases, libraries were pooled prior to use in selection. By combining equal volumes of the individual libraries, Pool F (libraries F1, F2 and F3) and Pool C (libraries C1 and C2) were generated. These libraries were used in selections for DBDpp binders to 4-1BB/CD137 as well as a larger panel of purified recombinant “target”-Fc proteins, including CD47, CTLA4, DR5, KIR, LAG3, OX40, PD1, PD-L1 and TIM3. (Many of these targets are considered immuno-regulatory factors (Pardoll et al., Nat. Rev. Cancer 12:252-264 (2012)). After incubation of the target with the pools of DBDpp phage libraries, bound phage-target complexes were captured and separated from unbound phage with protein A beads (target proteins were Fc fusions). After three rounds of selection, rescued phage clones were screened by ELISA for binding to the selected target.
(§2) For each target, approximately 90 DBDpp phage clones were screened by ELISA for binding to the target protein and as well as a non-specific control (e.g., IgG1-Fc). […] In some instances, for the ELISA screening plate in which the majority of DBDpp clones were positive, the entire plate was sequenced.
In the case of B21, the “ELISA ratio (target to background)” value is reported as 12.1 ratio.
With B22 the “ELISA ratio (target to background)” value was 10.7 ratio.
B23 was tested, and the “ELISA ratio (target to background)” value was 13 ratio.
B24 was tested, and the “ELISA ratio (target to background)” value was 12.3 ratio.
B25 was tested, and the “ELISA ratio (target to background)” value was 11.4 ratio.
B26 was tested, and the “ELISA ratio (target to background)” value was 10.8 ratio.
For B27, the “ELISA ratio (target to background)” value was 11.8 ratio.
For B28, the “ELISA ratio (target to background)” value was 10.3 ratio.
In the case of B29, the “ELISA ratio (target to background)” value is reported as 9.75 ratio.

These binders were tested against T3, recombinant, biotinylated, Human 4-1BB/TNFRSF9/CD137-Fc (human, UniProt Q07011 24-186, biotinylated (F2NNK selection)) in the same assay as above.
T3 construct: also called 4-1BB/CD137; not shown: Fc
T3 sequence (Q07011 24-186 limits assumed): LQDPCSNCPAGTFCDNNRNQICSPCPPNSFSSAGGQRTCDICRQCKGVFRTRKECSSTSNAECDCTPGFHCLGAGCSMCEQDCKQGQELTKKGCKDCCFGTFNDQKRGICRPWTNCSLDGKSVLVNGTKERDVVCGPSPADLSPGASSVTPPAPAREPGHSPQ
Method: as §1, §2
With B30 the “ELISA ratio (target to background)” value was 13 ratio.
In the case of B31, the “ELISA ratio (target to background)” value is reported as 20.6 ratio.

These binders were tested against T4, CD137-Fc-His6 fusion protein (assay: biolayer interferometry (ForteBio), CD137-Fc-His6 immobilized via protein A, steady state fit).
T4 construct: Made in HEK293 cells, IMAC purified; also called CD137 target protein
Method: The binding of the eight his-tagged DBDpp ligands (SEQ ID NO:51-58) to the CD137 target protein was assessed using biolayer interferometry (ForteBio, Menlo Park, Calif.) according to established methods. The binding assay was constructed by immobilizing the CD137-Fc-His6 via protein A and then incubating in solutions of each of the DBDpp ligands for 5 minutes to measure the association (binding) phase. The sensors were then placed in buffer to monitor the dissociation phase and the complete sensorgrams (time in seconds on the X-axis and nm on the Y-axis) are shown in FIGS. 12A, 12C, 12E, 12G, 12I, 12K, 12M, and 12O for DBDpps of SEQ ID Nos: 51-58, respectively. The data was fitted by steady state analysis, which is depicted in each of FIGS. […], 12F, 12H, 12J, 12L, 12N, and 12P for the corresponding DBDpp.
For B32, the Kd was 140 nM.
Work on B33 yielded a Kd of 170 nM.
Binder B34 has a Kd of 1000 nM.
In the case of B35, the Kd is reported as 460 nM.
B36 gave a Kd of 400 nM.
Binder B37 has a Kd of 640 nM.
Binder B38 has a Kd of 770 nM.
B39 gave a Kd of 1700 nM.
